According to patent US20180305702A1:

Columns and labels:
[1] = target: H-2K^b on DC2.4 cells not presenting SIINFEKL (cells infected with a non-SIINFEKL-expressing Lm strain; K^b-SIINFEKL negative populations) (murine); assay: flow cytometry, DC2.4 cells infected with a non-SIINFEKL-expressing Lm strain at MOI 20
[2] = target: cell surface MHC class I K^b molecules presenting the OVA257-264 SIINFEKL peptide (murine); assay: flow cytometry, K^b-SIINFEKL positive population of DC2.4 cells infected with the SIINFEKL minigene Lm (positive control)
[3] = target: cell surface MHC class I K^b molecules presenting the OVA257-264 SIINFEKL peptide (murine); assay: flow cytometry, DC2.4 cells infected with ADXS31-2142 at MOI 20, stained five hours post-infection
[4] = target: cell surface MHC class I K^b molecules presenting the OVA257-264 SIINFEKL peptide (murine); assay: flow cytometry, K^b-SIINFEKL positive population of DC2.4 cells infected with Lm expressing PSA-PSMA-SIINFEKL
[5] = target: cell surface MHC class I K^b molecules presenting the OVA257-264 SIINFEKL peptide (murine); assay: flow cytometry, K^b-SIINFEKL positive population of DC2.4 cells infected with Lm expressing PSA-Survivin-SIINFEKL
[6] = target: H-2K^b on DC2.4 cells not presenting SIINFEKL (cells infected with a non-SIINFEKL-expressing Lm strain; K^b-SIINFEKL negative populations) (murine); assay: flow cytometry, K^b-SIINFEKL negative populations of infected DC2.4 cells

## Alexa Fluor 647 conjugated 25D-1.16 antibody
[1]
  percentage of Alexa647+ DC2.4 cells: 0.37%
[2]
  Mean fluorescence intensity (MFI): 14900 MFI
[3]
  percentage of Alexa647+ DC2.4 cells: 14.6%
[4]
  Mean fluorescence intensity (MFI): 2040 MFI
[5]
  Mean fluorescence intensity (MFI): 4780 MFI
[6]
  Mean fluorescence intensity (MFI): 300 MFI
